Reference: the supplement of paper PMC10567573

B1: FOXJ1 (parent)
chain: SAIYKWITDNFCYFRHADPTWQNS

Variants of: B1
Experiment: protein stability index of a GFP-peptide fusion (GPS, HEK-293T) (PSI 1-6); higher = more stable
Details: c terminus: a fixed tail appended
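Also: lentivirally expressed fusions sorted by FACS into six bins by GFP to DsRed ratio, PSI derived from sequencing read proportions per bin multiplied by bin number.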

Variant | protein stability index
SAIYKWITDNFCYFRYADPTWQNS [H16Y] | 2.27
SAIYKWITDNFCYFRHCDPTWQNS [A17C] | 3.02
SAIYKWITDNFCYFRHGDPTWQNS [A17G] | 1.74
SAIYKWITDNFCYFRHHDPTWQNS [A17H] | 3.05
SAIYKWITDNFCYFRHIDPTWQNS [A17I] | 2.91
SAIYKWITDNFCYFRHKDPTWQNS [A17K] | 2.1
SAIYKWITDNFCYFRHMDPTWQNS [A17M] | 4.41
SAIYKWITDNFCYFRHNDPTWQNS [A17N] | 3.14
SAIYKWITDNFCYFRHPDPTWQNS [A17P] | 3.54
SAIYKWITDNFCYFRHQDPTWQNS [A17Q] | 2.7
SAIYKWITDNFCYFRHRDPTWQNS [A17R] | 3.34
SAIYKWITDNFCYFRHSDPTWQNS [A17S] | 2.61
SAIYKWITDNFCYFRHTDPTWQNS [A17T] | 2.16
SAIYKWITDNFCYFRHYDPTWQNS [A17Y] | 2.86
SAIYKWITDNFCYFRHAAPTWQNS [D18A] | 3.1
SAIYKWITDNFCYFRHACPTWQNS [D18C] | 2.02
SAIYKWITDNFCYFRHAEPTWQNS [D18E] | 3.65
SAIYKWITDNFCYFRHAFPTWQNS [D18F] | 1.9
SAIYKWITDNFCYFRHAGPTWQNS [D18G] | 2.24
SAIYKWITDNFCYFRHAHPTWQNS [D18H] | 4.66
SAIYKWITDNFCYFRHAIPTWQNS [D18I] | 2.82
SAIYKWITDNFCYFRHALPTWQNS [D18L] | 2.74
SAIYKWITDNFCYFRHAMPTWQNS [D18M] | 3.77
SAIYKWITDNFCYFRHANPTWQNS [D18N] | 3.12

Variant | protein stability index
SAIYKWITDNFCYFRHAQPTWQNS [D18Q] | 2.86
SAIYKWITDNFCYFRHARPTWQNS [D18R] | 2.77
SAIYKWITDNFCYFRHASPTWQNS [D18S] | 3.4
SAIYKWITDNFCYFRHATPTWQNS [D18T] | 2.81
SAIYKWITDNFCYFRHAVPTWQNS [D18V] | 2.75
SAIYKWITDNFCYFRHAWPTWQNS [D18W] | 2.55
SAIYKWITDNFCYFRHAYPTWQNS [D18Y] | 2.95
SAIYKWITDNFCYFRHADATWQNS [P19A] | 3.17
SAIYKWITDNFCYFRHADCTWQNS [P19C] | 2.7
SAIYKWITDNFCYFRHADDTWQNS [P19D] | 1.69
SAIYKWITDNFCYFRHADETWQNS [P19E] | 3.59
SAIYKWITDNFCYFRHADFTWQNS [P19F] | 4.12
SAIYKWITDNFCYFRHADGTWQNS [P19G] | 2.04
SAIYKWITDNFCYFRHADITWQNS [P19I] | 3.63
SAIYKWITDNFCYFRHADKTWQNS [P19K] | 3.4
SAIYKWITDNFCYFRHADLTWQNS [P19L] | 1.54
SAIYKWITDNFCYFRHADMTWQNS [P19M] | 4.18
SAIYKWITDNFCYFRHADNTWQNS [P19N] | 2.77
SAIYKWITDNFCYFRHADQTWQNS [P19Q] | 3.21
SAIYKWITDNFCYFRHADRTWQNS [P19R] | 3.65
SAIYKWITDNFCYFRHADSTWQNS [P19S] | 2.63
SAIYKWITDNFCYFRHADTTWQNS [P19T] | 4.32
SAIYKWITDNFCYFRHADVTWQNS [P19V] | 3.02
SAIYKWITDNFCYFRHADWTWQNS [P19W] | 2.35

Variant | protein stability index
SAIYKWITDNFCYFRHADPAWQNS [T20A] | 2.54
SAIYKWITDNFCYFRHADPCWQNS [T20C] | 3
SAIYKWITDNFCYFRHADPDWQNS [T20D] | 2.67
SAIYKWITDNFCYFRHADPFWQNS [T20F] | 1.78
SAIYKWITDNFCYFRHADPIWQNS [T20I] | 2.42
SAIYKWITDNFCYFRHADPKWQNS [T20K] | 2.23
SAIYKWITDNFCYFRHADPLWQNS [T20L] | 2.08
SAIYKWITDNFCYFRHADPPWQNS [T20P] | 3.38
SAIYKWITDNFCYFRHADPRWQNS [T20R] | 3.92
SAIYKWITDNFCYFRHADPSWQNS [T20S] | 3.35
SAIYKWITDNFCYFRHADPWWQNS [T20W] | 4.37
SAIYKWITDNFCYFRHADPYWQNS [T20Y] | 2.55
SAIYKWITDNFCYFRHADPTAQNS [W21A] | 3.28
SAIYKWITDNFCYFRHADPTCQNS [W21C] | 2.94
SAIYKWITDNFCYFRHADPTDQNS [W21D] | 2.94
SAIYKWITDNFCYFRHADPTEQNS [W21E] | 3.54
SAIYKWITDNFCYFRHADPTFQNS [W21F] | 1.85
SAIYKWITDNFCYFRHADPTGQNS [W21G] | 2.24
SAIYKWITDNFCYFRHADPTHQNS [W21H] | 2.11
SAIYKWITDNFCYFRHADPTIQNS [W21I] | 3.5
SAIYKWITDNFCYFRHADPTKQNS [W21K] | 3.58
SAIYKWITDNFCYFRHADPTMQNS [W21M] | 3.42
SAIYKWITDNFCYFRHADPTNQNS [W21N] | 3.38
SAIYKWITDNFCYFRHADPTPQNS [W21P] | 1.99

Variant | protein stability index
SAIYKWITDNFCYFRHADPTQQNS [W21Q] | 2.9
SAIYKWITDNFCYFRHADPTRQNS [W21R] | 2.27
SAIYKWITDNFCYFRHADPTSQNS [W21S] | 1.61
SAIYKWITDNFCYFRHADPTTQNS [W21T] | 4.47
SAIYKWITDNFCYFRHADPTVQNS [W21V] | 3.94
SAIYKWITDNFCYFRHADPTWCNS [Q22C] | 3.38
SAIYKWITDNFCYFRHADPTWDNS [Q22D] | 2.56
SAIYKWITDNFCYFRHADPTWENS [Q22E] | 2.19
SAIYKWITDNFCYFRHADPTWFNS [Q22F] | 3.37
SAIYKWITDNFCYFRHADPTWGNS [Q22G] | 2.93
SAIYKWITDNFCYFRHADPTWHNS [Q22H] | 3.75
SAIYKWITDNFCYFRHADPTWMNS [Q22M] | 3.06
SAIYKWITDNFCYFRHADPTWNNS [Q22N] | 4.82
SAIYKWITDNFCYFRHADPTWPNS [Q22P] | 3.76
SAIYKWITDNFCYFRHADPTWSNS [Q22S] | 4.33
SAIYKWITDNFCYFRHADPTWWNS [Q22W] | 1.86
SAIYKWITDNFCYFRHADPTWQAS [N23A] | 2.99
SAIYKWITDNFCYFRHADPTWQCS [N23C] | 2.97
SAIYKWITDNFCYFRHADPTWQDS [N23D] | 3.65
SAIYKWITDNFCYFRHADPTWQES [N23E] | 3.59
SAIYKWITDNFCYFRHADPTWQFS [N23F] | 3.19
SAIYKWITDNFCYFRHADPTWQGS [N23G] | 4.27
